Experimental findings from article PMC11432317 are described below.

The assay deals with receptor binding domain (RBD) of the SARS-CoV-2 spike protein (residues 319-541) (SARS-CoV-2) (UniProt P0DTC2). Description: SPR. For orientation: In SPR one partner is held on a chip, and binding of the other changes the refractive index at the surface.

For orientation: Kd means the equilibrium constant for the complex coming apart. Lower therefore signals tighter binding. Take “wild-type sACE2-Fc (soluble ACE2, residues 1-615, fused to human IgG Fc) (from UniProt Q9BYF1 18-615) (Fc fusion)”: the Kd stood at 23.2 nM.
